# Laboratory results as given in US20140057830A1 (COMPLIX, published 2014).
# Residue numbers refer to the chain shown, from its start.
# T1: human IL-23 (human, UniProt Q9NPF7 20-189; P29460 23-328)
# T1 construct: Heterodimer p19/p40; in the ELISA captured on the plate through a biotinylated anti-p40 antibody (clone C8.6); also called cytokine IL-23 (eBioscience, 34-8239-85)
# T1 sequence (looked up) 1: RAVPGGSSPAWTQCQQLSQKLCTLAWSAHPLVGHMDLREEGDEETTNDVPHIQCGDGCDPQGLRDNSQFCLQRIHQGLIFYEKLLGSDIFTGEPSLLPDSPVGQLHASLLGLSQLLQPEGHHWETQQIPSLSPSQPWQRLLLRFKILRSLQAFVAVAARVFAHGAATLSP
# T1 sequence (looked up) 2: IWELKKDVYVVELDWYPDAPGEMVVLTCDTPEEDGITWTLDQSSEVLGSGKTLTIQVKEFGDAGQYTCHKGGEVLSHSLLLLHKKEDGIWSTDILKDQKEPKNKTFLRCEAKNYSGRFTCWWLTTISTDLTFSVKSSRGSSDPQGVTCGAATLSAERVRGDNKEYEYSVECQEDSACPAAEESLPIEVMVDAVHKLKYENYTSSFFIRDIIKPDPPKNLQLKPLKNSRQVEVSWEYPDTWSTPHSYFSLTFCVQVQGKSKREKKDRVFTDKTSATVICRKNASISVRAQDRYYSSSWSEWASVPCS
# T2: human Flt3L (human, UniProt P49771 27-160, limits assumed)
# T2 construct: Biotinylated form used in biopanning and phage ELISA; unlabelled in ITC and crystallography; also called hFlt3L; Flt3 ligand
# T2 sequence (looked up): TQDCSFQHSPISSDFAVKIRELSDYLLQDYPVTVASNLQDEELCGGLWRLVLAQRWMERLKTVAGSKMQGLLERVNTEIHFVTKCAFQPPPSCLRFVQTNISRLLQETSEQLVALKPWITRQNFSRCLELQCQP
# B1: SEQ ID NO 65 (designed binder)
# chain: GSIEQIQKTIAKIQERIAWIQKVIYAMTGGSGGSGGGSIEQIQKQIAAIQKQIAAIQKQIYAMTGSGGGGSGGSIEQIQKQIKAISYQIIAIMRQILAMTP
# notes: Alphabody, AC12 library clone
# B2: SEQ ID NO 70 (designed binder)
# chain: B1 chain with T9C, K12F, W19G, V23R, K83F, S86G, Y87K, I90F, M93V, R94K
# notes: Alphabody, AC12 library clone
# B3: SEQ ID NO 73 (designed binder)
# chain: B1 chain with T9F, K12S, R16C, W19S, K83G, S86A, Y87A, M93V, R94E, L97V
# notes: Alphabody, AC12 library clone
# B4: SEQ ID NO 67 (designed binder)
# chain: GSIEQIQKVIAWIQESIASIQKRIYAMTGGSGGSGGGSIEQIQKQIAAIQKQIAAIQKQIYAMTGSGGGGSGGSIEQIQKQIQAIANQITAIVRQIIAMTP
# notes: Alphabody, AC12 library clone
# B5: SEQ ID NO 71 (designed binder)
# chain: B1 chain with T9P, K12A, R16K, W19R, V23R, K83M, S86N, Y87R, I90L, M93L
# notes: Alphabody, AC12 library clone
# B6: SEQ ID NO 74 (designed binder)
# chain: GSIEQIQKKIAYIQEMIALIQKGIYAMTGGSGGSGGGSIEQIQKQIAAIQKQIAAIQKQIYAMTGSGGGGSGGSIEQIQKQISAIAAQISAIIKQIMAMTP
# notes: Alphabody, AC12 library clone
# B7: SEQ ID NO 77 (designed binder)
# chain: GSIEQIQKGIAAIQEWIATIQKRIYAMTGGSGGSGGGSIEQIQKQIAAIQKQIAAIQKQIYAMTGSGGGGSGGSIEQIQKQIRAITIQIIAIIQQIWAMTP
# notes: Alphabody, AC12 library clone
# B8: SEQ ID NO 104 (designed binder)
# chain: GSIEQIQKNIAYIQERIATIQKKIYRMTGGSGGSGGGGSGGSGGGSIEQIQKQIAAIQKQIAAIQKQIYAMTGSGGGGSGGSGGGGSGGSIEQIQKQIGAIAEQILAIVKQIRAMTP
# notes: Alphabody, AC11b library clone
# B9: SEQ ID NO 103 (designed binder)
# chain: GSIEQIQKPIASIQELIAMIQKAIYWMTGGSGGSGGGGSGGSGGGSIEQIQKQIAAIQKQIAAIQKQIYAMTGSGGGGSGGSGGGGSGGSIEQIQKQIVAISEQIMAIIKQIGAMTP
# notes: as for B8
# B10: SEQ ID NO 122 (designed binder)
# chain: B8 chain with N9R, Y12P, R16S, T19G, K23R, G99R, A102T, L106G, V109L, R113F
# notes: as for B8
# B11: SEQ ID NO 114 (designed binder)
# chain: B8 chain with N9R, Y12R, R16P, T19G, K23R, R26M, G99R, L106V, V109A, R113V
# notes: as for B8
# B12: SEQ ID NO 107 (designed binder)
# chain: B8 chain with N9P, Y12R, R16T, T19I, K23T, G99T, A102R, L106R, V109W, R113P
# notes: as for B8
# B13: SEQ ID NO 95 (designed binder)
# chain: B8 chain with N9P, Y12L, K23L, R26G, G99S, V109S, R113W
# notes: as for B8
# B14: SEQ ID NO 99 (designed binder)
# chain: B8 chain with N9P, Y12E, R16I, T19R, R26I, G99S, A102G, L106F, R113Y
# notes: as for B8
# B15: SEQ ID NO 102 (designed binder)
# chain: B8 chain with N9I, Y12S, R16P, T19R, K23G, V109F
# notes: as for B8
# B16: SEQ ID NO 105 (designed binder)
# chain: GSIEQIQKRIARIQEKIAWIQKPIYQMTGGSGGSGGGGSGGSGGGSIEQIQKQIAAIQKQIAAIQKQIYAMTGSGGGGSGGSGGGGSGGSIEQIQKQIRAIREQIGAILKQIKAMTP
# notes: as for B8
# B17: SEQ ID NO 96 (designed binder)
# chain: B9 chain with P9W, S12C, L16C, M19G, A23E, W26I, V99R, M106Y, G113S
# notes: as for B8
# B18: hFlt3L_cl4 (designed binder)
# chain: HMSIEEIQKQIAAIQKQIAAIQKQIYAMTGGSGGGSGGGSGGGSGMSIEEIQKQIAAIQKQIAAIQKQIYAMTGGSGGGSGGGSGGGSGMSIEEIQDQILNIQWQIHDIQQQIIVMTPGG
# Molecular target: T1, human IL-23
# Assay: phage ELISA; IL-23 captured by anti-p40 antibody
# Procedure: The set-up of the ELISA was as follows. Neutravidin was immobilized on the plate at a concentration of 0.010 mg/ml in PBS (0.100 ml) for 1 hour at room temperature (RT). Plates were washed 5 times with PBS containing 0.05% Tween 20 (PBST) for 5 min. Subsequently, 0.1 ml Biotinylated anti-p40 antibody (100 nM) was added to the plates in PBS containing 0.1% BSA and incubated overnight at 4° C. or at RT for 1 hour. After incubation, plates were washed 5 times with PBST and blocked with PBS containing 0.1% BSA and 0.5% gelatin (0.120 ml/well) for at least 1 hour at room temperature or overnight at 4° C. After washing 5 times with PBST, 100 nM IL-23 (target) was added to 0.1 ml PBS, 0.1% BSA. For individual negative controls no IL-23 was added (background).
# In the meantime, the bacteria plates were centrifuged at 1700 rpm for 10 min to pellet the bacteria. Plates with the immobilized IL-23 were washed 5 times with PBST and 0.050 ml of PBS with 0.2% BSA were added to the plate together with 0.050 ml of the bacterial culture supernatant containing phage. Plates were incubated for 1 to 1.5 hours at room temperature while shaking. Shaking of the plates enhanced the ELISA signals.
row,binding result,Binder
1,binds,B1
2,binds,B2
3,binds,B3
4,binds,B4
5,binds,B5
6,binds,B6
7,binds,B7
8,binds,B8
9,binds,B9
10,binds,B10
11,binds,B11
12,binds,B12
13,binds,B13
14,binds,B14
15,binds,B15
16,binds,B16
17,binds,B17

# Molecular target: T2, human Flt3L
# Assay: isothermal titration calorimetry, 37 C, triplicate
# Procedure: (§1) The binding of Alphabody hFlt3L_cl4 to the target hFlt3L was tested by isothermal titration calorimetry (ITC) in order to determine its dissociation constant (KD), thermodynamic parameters (ΔH, ΔS) and binding stoichiometry. Prior to the measurements, Alphabody and target samples were dialyzed against 20 mM HEPES buffer containing 150 mM NaCl, pH 7.4. The ITC measurements were performed in triplicate at a temperature of 37° C. In each experiment, hFlt3L, which exists as a stable dimer in solution, was loaded into the cell (at concentrations 3.0 μM, 6.5 μM and 7.0 μM of hFlt3L dimer, respectively) and hFlt3L_cl4 was loaded in the syringe (at concentrations of 41.35 μM, 89.62 μM and 89.62 μM, respectively). […] This implies that, since the concentrations of hFlt3L were given for the dimeric complex (hFlt3L)₂, only one hFlt3L_cl4 Alphabody binds to one hFlt3L dimer.
Ka,ΔG,ΔH,ΔS,Binder
4.95e+06 M⁻¹,-9.5 kcal/mol,-16.6 kcal/mol,-22.9 cal/(mol·K),B18

# Molecular target: T2, human Flt3L
# Assay: isothermal titration calorimetry, 37 C, triplicate; hFlt3L dimer in the cell, Alphabody in the syringe
# Procedure: as §1
row,Kd,Binder
1,202 nM,B18
